According to publication PMC3229523, “Identification of Lactoferricin B Intracellular Targets Using an Escherichia coli Proteome Chip” (PLoS ONE, 2011):
Ends that are not written are not given here. * marks the point of attachment. Biotin = O=C1N[C@H]2[C@H](CS[C@H]2CCCCC(=O)*)N1

Key:
Test in all cases: peptide or protein array; E. coli proteome chip: purified His-tagged proteins printed in duplicate on Fullmoon slides, blocked with 1% BSA; 10 nM N-terminal biotinylated LfcinB with 1% BSA, room temperature, 1 h; detected with DyLight 649-labeled streptavidin, ratio to DyLight 549-labeled anti-His antibody; ProCAT normalisation, local cut-off; triplicate chips
Settings in all cases: both partners purified
YtfI = biological target: T1, YtfI (E. coli K-12, UniProt P39317 1-312)
T1 construct: YtfI, E. coli K-12
T1 sequence (looked up): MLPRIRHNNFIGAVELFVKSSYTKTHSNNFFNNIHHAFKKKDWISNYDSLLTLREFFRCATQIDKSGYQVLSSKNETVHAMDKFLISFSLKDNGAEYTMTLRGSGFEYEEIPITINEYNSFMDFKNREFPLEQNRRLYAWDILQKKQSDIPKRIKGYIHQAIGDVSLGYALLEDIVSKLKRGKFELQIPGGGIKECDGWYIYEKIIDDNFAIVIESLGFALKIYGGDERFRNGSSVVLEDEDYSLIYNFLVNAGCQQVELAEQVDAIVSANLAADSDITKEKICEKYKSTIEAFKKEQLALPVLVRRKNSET

CaiA = biological target: T2, CaiA (E. coli K-12, UniProt P60584 1-380)
T2 construct: CaiA, E. coli K-12
T2 sequence (looked up): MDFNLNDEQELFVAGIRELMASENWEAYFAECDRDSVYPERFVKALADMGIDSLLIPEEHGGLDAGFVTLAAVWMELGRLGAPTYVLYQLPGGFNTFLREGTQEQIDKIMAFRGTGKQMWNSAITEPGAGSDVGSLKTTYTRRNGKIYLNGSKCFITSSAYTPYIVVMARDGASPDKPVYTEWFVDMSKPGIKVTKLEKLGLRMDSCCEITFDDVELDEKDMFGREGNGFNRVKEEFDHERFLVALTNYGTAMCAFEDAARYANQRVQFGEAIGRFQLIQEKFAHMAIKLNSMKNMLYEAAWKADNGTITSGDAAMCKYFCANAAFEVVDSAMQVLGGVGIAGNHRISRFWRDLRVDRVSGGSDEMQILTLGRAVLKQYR

YdaW = biological target: T3, YdaW (E. coli K-12, UniProt P76066 1-186)
T3 construct: YdaW, E. coli K-12
T3 sequence (looked up): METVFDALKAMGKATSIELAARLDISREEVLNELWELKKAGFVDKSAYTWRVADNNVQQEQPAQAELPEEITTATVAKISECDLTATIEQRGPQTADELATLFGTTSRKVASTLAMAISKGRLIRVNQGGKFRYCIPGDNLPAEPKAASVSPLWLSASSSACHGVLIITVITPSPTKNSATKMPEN

YegJ = biological target: T4, YegJ (E. coli K-12, UniProt P76394 1-153)
T4 construct: YegJ, E. coli K-12
T4 sequence (looked up): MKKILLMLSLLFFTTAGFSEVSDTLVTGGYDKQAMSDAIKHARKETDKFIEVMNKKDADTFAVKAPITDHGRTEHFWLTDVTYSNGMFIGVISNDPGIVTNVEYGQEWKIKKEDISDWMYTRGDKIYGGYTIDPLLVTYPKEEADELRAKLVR

YceC = biological target: T5, YceC (E. coli K-12, UniProt P0AA39 1-319)
T5 construct: YceC, E. coli K-12
T5 sequence (looked up): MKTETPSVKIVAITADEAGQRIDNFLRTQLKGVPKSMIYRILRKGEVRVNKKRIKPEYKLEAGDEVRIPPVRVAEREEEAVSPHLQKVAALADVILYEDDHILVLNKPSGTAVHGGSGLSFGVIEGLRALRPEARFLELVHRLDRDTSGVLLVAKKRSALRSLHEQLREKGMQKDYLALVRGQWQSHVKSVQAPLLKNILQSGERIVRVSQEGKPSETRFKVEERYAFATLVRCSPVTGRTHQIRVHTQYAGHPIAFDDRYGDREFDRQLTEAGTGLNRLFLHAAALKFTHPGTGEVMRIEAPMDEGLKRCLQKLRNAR

AroD = biological target: T6, AroD (E. coli K-12, UniProt P05194 1-252)
T6 construct: AroD, E. coli K-12
T6 sequence (looked up): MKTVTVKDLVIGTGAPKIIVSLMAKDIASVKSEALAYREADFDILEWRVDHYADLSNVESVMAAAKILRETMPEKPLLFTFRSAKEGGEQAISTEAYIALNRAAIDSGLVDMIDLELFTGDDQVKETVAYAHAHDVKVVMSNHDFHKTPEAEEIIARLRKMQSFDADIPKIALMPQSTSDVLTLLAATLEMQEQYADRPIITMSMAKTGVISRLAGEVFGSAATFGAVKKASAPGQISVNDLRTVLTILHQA

Measured: binding result

B1: N-terminal biotinylated Lactoferricin B (peptide, UniProt P24627 36-60, looked up)
peptide: Biotin-FKCRRWQWRMKKLGAPSITCVRRAF
modifications: ends and bridges not checked
notes: lactoferricin B (LfcinB), cationic antimicrobial peptide of 25 amino acids; also called biotinylated LfcinB; biotin-labeled LfcinB; source: bought: Kelowna Inc
binds: all assays above
